Source: publication PMC7782713, “Structural basis of Naa20 activity towards a canonical NatB substrate” (Communications Biology, 2021)
No end group written: not given here. CoA = coenzyme A

Key:
[1] = molecular target: Chaetomium thermophilum Naa20 residues 1-166 (predicted GNAT fold) (Chaetomium thermophilum); assay: ITC; CtNaa20_(1-166) 25-35 uM in the cell, CtNaa25 250-400 uM in the syringe, 20 °C, buffer G (20 mM HEPES pH 7.5, 200 mM NaCl), single-site binding model, triplicates
[2] = molecular target: Chaetomium thermophilum Naa20, catalytic subunit of NatB, full length (Chaetomium thermophilum)
[3] = molecular target: Chaetomium thermophilum NatB complex (CtNaa25 with CtNaa20) (Chaetomium thermophilum)
[4] = molecular target: Chaetomium thermophilum Naa25, auxiliary subunit of NatB, full length (Chaetomium thermophilum); assay: SEC-MALS; Superdex 200 10/300 in buffer G (20 mM HEPES pH 7.5, 200 mM NaCl); CtNatB (0.12 mg, co-expressed and purified as a complex), CtNaa25 (0.13 mg) and CtNaa20 (0.1 mg) injected one after the other
CtNaa20 [5] = molecular target: T1, CtNaa20 (Thermochaetoides thermophila, UniProt G0SGG4); assay: nanoDSF thermal shift; assay type: binding; settings: varying ligand excess; buffer G pH 7.5
T1 construct: gene CTHT_0066240; full length, C-terminal His6 (pET21d), E. coli Rosetta II (DE3); residues 2-190 built in the crystal structure

CtNatB = molecular target: T2, CtNatB (Thermochaetoides thermophila, UniProt G0SGG4); assay: nanoDSF thermal shift; assay type: binding; settings: 1/64 protein/ligand; buffer G pH 7.5
T2 construct: gene CTHT_0066240; co-expressed in E. coli Rosetta II (DE3); CtNaa20 with C-terminal His6, CtNaa25 with TEV-cleavable N-terminal His6; with N-alpha-acetyltransferase 25 (N-terminal acetyltransferase B complex auxiliary subunit NAA25)

CtNaa20 [6] = molecular target: T3, CtNaa20 (Chaetomium thermophilum, UniProt G0SGG4 1-235); assay: EMSA; 5-20 uM protein, 5 uM RNA; 20 mM Tris pH 8, 200 mM NaCl, 10 mM MgCl2, 10 mM KCl, 20% glycerol, 20 C, 30 min; 0.8% agarose gel in 0.5x TB; settings: protein: recombinant; tags: C-terminal His6
T3 sequence: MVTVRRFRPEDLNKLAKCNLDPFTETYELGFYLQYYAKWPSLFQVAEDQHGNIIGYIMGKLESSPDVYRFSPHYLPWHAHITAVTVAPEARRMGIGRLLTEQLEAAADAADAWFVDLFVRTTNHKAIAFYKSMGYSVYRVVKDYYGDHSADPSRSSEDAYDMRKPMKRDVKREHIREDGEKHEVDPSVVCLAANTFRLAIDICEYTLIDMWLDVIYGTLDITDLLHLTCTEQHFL

[7] = molecular target: T4, Chaetomium thermophilum NatB complex (CtNaa25 with CtNaa20) (Chaetomium thermophilum); assay: cell-based or functional assay
T4 chain: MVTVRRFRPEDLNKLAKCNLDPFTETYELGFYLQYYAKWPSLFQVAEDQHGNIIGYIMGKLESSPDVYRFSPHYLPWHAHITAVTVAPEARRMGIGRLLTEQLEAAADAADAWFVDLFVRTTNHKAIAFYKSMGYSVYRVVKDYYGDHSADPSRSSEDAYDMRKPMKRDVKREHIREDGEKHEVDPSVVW

[8] = molecular target: T4, Chaetomium thermophilum NatB complex …; assay: enzyme inhibition kinetics (acetylation microplate assay); 500 nM enzyme; mode of inhibition and inhibitor constant of CoA-Ac-MDEL in the acetylation of MDEL; competitive inhibitor; triplicates; settings: both partners purified

## Chaetomium thermophilum Naa25, auxiliary subunit of NatB, full length (natural protein)
[1]
  Kd: 17.8 nM
  dH: 5.4 kcal/mol
  stoichiometry N: 1

## MDEL peptide (canonical NatB substrate)
[2]
  Km for MDEL in the acetylation assay (constant AcCoA, varying MDEL): 4400 µM
[3]
  Km for MDEL in the acetylation assay (constant AcCoA, varying MDEL): 232 µM

## Chaetomium thermophilum Naa20, catalytic subunit of NatB, full length (enzyme)
[4]
  stoichiometry N: 1

## CC(=O)SCCNC(=O)CCNC(=O)[C@H](O)C(C)(C)COP(=O)(O)OP(=O)(O)OC[C@H]1O[C@@H](n2cnc3c(N)ncnc32)[C@H](O)[C@@H]1OP(=O)(O)O [AcCoA]
CtNaa20 [5]
  Tm: Binding of both ligands to CtNatB and CtNaa20 is indicated by protein stabilization
CtNatB
  Tm without to with ligand: 58 to 62 °C

## GGGCCUCUAGCCGGGCAACCGGCCGGCGGCUC (structured_RNA) [CtES27 fragment (tip of expansion segment 27)]
CtNaa20 [6]
  binding result: no binding

B1: CoA-Ac-MDEL bisubstrate analog (peptide MDEL joined to coenzyme A through an acetyl bridge) (peptide)
peptide: {CoA-Ac}-MDEL
notes: peptide part of the bisubstrate analog, the canonical NatB substrate MDEL; A tetrapeptide conjugate of 1314 Da; also called MDEL (peptide part M1pD2pE3pL4p); source: synthetic peptide (solid phase), bromo-acetylated and coupled to coenzyme A, purified by reverse phase HPLC
[2]
  IC50 of the inhibition of acetylation by CtNaa20 alone: 6500 nM
[7]
  half-maximum inhibitor concentration (IC50) of the NatB mediated acetylation of MDEL: 1560 nM
[8]
  Ki: 410 ± 140 nM
